T1: recombinant Mycobacterium tuberculosis rTB18.6 (Mycobacterium tuberculosis H37Rv, UniProt P9WFN1 1-176)
T1 construct: also called pHis-tb18.6 product
T1 sequence: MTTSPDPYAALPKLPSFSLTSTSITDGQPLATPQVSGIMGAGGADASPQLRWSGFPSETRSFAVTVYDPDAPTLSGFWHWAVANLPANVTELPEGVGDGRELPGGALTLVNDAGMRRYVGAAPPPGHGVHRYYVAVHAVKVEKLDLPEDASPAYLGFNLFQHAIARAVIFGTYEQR

T2: recombinant Mycobacterium tuberculosis rABC (Mycobacterium tuberculosis H37Rv, UniProt P9WQK3 1-558)
T2 construct: also called rABC transporter; pHis-abc product
T2 sequence: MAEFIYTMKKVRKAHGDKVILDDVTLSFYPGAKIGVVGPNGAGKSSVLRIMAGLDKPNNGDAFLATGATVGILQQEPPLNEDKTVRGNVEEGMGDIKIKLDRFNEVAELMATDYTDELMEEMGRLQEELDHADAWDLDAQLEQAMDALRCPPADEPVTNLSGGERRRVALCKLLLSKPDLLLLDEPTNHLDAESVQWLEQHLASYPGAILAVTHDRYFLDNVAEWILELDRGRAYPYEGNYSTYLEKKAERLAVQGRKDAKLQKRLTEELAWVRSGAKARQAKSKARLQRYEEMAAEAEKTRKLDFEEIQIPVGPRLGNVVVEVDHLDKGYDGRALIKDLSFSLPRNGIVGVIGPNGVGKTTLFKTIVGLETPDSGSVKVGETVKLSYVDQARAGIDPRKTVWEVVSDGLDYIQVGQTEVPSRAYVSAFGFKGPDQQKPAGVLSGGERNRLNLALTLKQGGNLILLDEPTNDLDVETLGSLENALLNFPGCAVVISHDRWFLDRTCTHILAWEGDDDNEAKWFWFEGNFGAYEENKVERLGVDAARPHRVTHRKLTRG

B1: biotin-labeled recombinant human SAA1 (natural protein, UniProt P0DJI8 19-122, looked up)
chain: RSFFSFLGEAFDGARDMWRAYSDMREANYIGSDKYFHARGNYDAAKRGPGGAWAAEVITDARENIQRFFGHGAEDSLADQAANEWGRSGKDPNHFRPAGLPEKY
modifications: biotin (Sulfo-NHS-biotin labeling; sites not stated)
notes: serum amyloid A1 (SAA1), human, recombinant, bought from Sigma Aldrich; Same bought protein as m1, biotinylated; detected with streptavidin-HRP; also called biotinylated SAA1; biotin-labeled human SAA1; source: bought: Sigma Aldrich (recombinant), labeled with EZ-Link Micro Sulfo-NHS-Biotinylation Kit
B2: recombinant human serum amyloid A (SAA1) (natural protein, UniProt P0DJI8 19-122, looked up)
chain: B1 chain
notes: serum amyloid A1 (SAA1), human, recombinant, bought from Sigma Aldrich; also called human SAA1; human acute phase protein; source: bought: Sigma Aldrich (recombinant)

Assays:
Conditions in all cases: both partners purified
[1] = target: T3, recombinant Mycobacterium tuberculosis rEspB (Mycobacterium tuberculosis H37Rv, UniProt P9WJD9 1-460); assay: far-Western, overlay or dot blot; recombinant Mtb proteins separated by reducing SDS-PAGE (12% gel), transferred to nitrocellulose, incubated 2 h at room temperature with biotin-labeled SAA1 at 10 µg/mL in PBS/0.05% Tween 20/0.1% BSA; streptavidin-peroxidase detection
T3 construct: also called pHis-espB product

[2] = target: T4, recombinant Mycobacterium tuberculosis rThiC (Mycobacterium tuberculosis H37Rv, UniProt P9WG79 1-547); assay: as above
T4 construct: also called pHis-thiC product

[3] = target: T1, recombinant Mycobacterium tuberculosis …; assay: as above
[4] = target: T5, recombinant Mycobacterium tuberculosis rAtpA (Mycobacterium tuberculosis H37Rv, UniProt P9WPU7 1-549); assay: as above
T5 construct: also called pHis-atpA product

[5] = target: T3, recombinant Mycobacterium tuberculosis …; assay: SPR; Biacore X, CM5 chip; human SAA1 amine-coupled (7850 RU), BSA chip as control and blank; native recombinant Mtb proteins as analytes; 22-25 °C; HBS-EP pH 7.4 (0.01 M HEPES, 0.15 M NaCl, 3 mM EDTA, 0.005% P20); flow 5 or 20 µL/min; global fit, Langmuir 1:1 with drifting baseline
[6] = target: T4, recombinant Mycobacterium tuberculosis …; assay: as above
[7] = target: T2, recombinant Mycobacterium tuberculosis …; assay: as above
[8] = target: T1, recombinant Mycobacterium tuberculosis …; assay: as above
[9] = target: T5, recombinant Mycobacterium tuberculosis …; assay: as above

T3 sequence (P9WJD9 whole entry): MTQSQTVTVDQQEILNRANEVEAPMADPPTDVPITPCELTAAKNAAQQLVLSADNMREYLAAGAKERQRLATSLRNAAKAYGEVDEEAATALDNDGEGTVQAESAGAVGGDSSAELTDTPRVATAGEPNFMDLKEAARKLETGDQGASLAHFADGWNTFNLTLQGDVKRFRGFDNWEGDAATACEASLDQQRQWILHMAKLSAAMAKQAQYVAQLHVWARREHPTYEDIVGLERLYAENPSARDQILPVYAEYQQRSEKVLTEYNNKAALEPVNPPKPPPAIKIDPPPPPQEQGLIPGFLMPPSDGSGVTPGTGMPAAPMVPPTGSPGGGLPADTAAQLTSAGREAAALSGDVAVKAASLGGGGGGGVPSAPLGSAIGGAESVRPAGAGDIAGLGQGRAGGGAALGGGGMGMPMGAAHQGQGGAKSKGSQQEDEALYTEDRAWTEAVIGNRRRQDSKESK
T4 sequence (P9WG79 whole entry): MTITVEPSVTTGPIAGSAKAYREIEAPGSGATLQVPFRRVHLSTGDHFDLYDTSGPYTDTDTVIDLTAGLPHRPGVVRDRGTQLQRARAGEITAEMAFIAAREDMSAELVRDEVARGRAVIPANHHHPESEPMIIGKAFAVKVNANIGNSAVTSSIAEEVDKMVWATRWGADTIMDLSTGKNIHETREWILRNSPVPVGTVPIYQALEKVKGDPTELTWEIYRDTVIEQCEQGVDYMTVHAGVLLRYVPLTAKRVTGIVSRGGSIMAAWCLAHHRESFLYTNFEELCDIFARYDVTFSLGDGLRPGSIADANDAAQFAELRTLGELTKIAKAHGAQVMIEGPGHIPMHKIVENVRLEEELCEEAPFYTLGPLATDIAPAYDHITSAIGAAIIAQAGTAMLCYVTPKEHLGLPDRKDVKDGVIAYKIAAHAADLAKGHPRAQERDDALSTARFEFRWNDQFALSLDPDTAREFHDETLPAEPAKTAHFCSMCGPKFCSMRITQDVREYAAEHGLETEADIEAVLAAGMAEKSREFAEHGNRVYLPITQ
T5 sequence (P9WPU7 whole entry): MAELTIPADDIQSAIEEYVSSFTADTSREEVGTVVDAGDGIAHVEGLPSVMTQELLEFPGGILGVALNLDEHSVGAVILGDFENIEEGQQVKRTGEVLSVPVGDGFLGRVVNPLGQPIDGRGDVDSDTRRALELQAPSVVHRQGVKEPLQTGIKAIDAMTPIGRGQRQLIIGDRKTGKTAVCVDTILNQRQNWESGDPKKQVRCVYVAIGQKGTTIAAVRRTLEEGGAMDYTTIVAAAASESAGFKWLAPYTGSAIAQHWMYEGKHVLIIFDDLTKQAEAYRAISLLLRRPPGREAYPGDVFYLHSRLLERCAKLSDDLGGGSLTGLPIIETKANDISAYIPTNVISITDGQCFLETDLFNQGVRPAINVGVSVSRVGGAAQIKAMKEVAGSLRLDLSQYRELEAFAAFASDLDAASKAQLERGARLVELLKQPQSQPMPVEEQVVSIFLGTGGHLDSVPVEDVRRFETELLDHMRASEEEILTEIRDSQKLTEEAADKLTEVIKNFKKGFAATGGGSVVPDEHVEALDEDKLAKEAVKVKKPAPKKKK

Binder | binding result [1] | binding result [2] | binding result [3] | binding result [4] | Kd [5] | Kd [6] | Kd [7] | Kd [8] | Kd [9]
B1 | binds | binds | binds | binds |  |  |  |  | 
B2 |  |  |  |  | 5.06 µM | 7.53 µM | 11.3 µM | 8.5 µM | 0.194 µM
